According to publication PMC3954793, “SHP-2 Binds to Caveolin-1 and Regulates Src Activity via Competitive Inhibition of CSK in Response to H2O2 in Astrocytes” (PLoS ONE, 2014):

Columns and labels:
[1] = target: SHP-2 (UniProt Q06124); experiment: PepSPOT peptide array overlay; settings: reference: nonphosphorylated 13-mer peptides; sites Y14
[2] = target: CSK (UniProt P41240); experiment: PepSPOT peptide array overlay; settings: reference: nonphosphorylated 13-mer peptides; sites Y14

Substance: caveolin-1 13-mers within 1-28 (from UniProt Q03135) pY14 13-mer peptides
- binding against the reference [1]: stronger
- binding against the reference [2]: stronger
